One substance from patent publication US9988614 can be followed below.

Substitutions are numbered along the chain they refer to. Bounds are passed on as bounds.

Data set [1] has as its system T1, BbsI P442A (subunit B variant) P442A (subunit B) (Brevibacillus laterosporus).
T1 sequence 1: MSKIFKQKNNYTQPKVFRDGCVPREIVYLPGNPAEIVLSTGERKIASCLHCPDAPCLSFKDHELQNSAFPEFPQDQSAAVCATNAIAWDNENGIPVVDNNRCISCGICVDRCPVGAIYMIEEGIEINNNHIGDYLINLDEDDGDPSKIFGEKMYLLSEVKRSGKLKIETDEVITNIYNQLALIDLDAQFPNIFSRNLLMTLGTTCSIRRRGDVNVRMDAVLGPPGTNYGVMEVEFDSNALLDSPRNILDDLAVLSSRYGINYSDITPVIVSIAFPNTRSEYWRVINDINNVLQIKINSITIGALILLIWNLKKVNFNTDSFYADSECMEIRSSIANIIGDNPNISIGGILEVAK
T1 sequence 2: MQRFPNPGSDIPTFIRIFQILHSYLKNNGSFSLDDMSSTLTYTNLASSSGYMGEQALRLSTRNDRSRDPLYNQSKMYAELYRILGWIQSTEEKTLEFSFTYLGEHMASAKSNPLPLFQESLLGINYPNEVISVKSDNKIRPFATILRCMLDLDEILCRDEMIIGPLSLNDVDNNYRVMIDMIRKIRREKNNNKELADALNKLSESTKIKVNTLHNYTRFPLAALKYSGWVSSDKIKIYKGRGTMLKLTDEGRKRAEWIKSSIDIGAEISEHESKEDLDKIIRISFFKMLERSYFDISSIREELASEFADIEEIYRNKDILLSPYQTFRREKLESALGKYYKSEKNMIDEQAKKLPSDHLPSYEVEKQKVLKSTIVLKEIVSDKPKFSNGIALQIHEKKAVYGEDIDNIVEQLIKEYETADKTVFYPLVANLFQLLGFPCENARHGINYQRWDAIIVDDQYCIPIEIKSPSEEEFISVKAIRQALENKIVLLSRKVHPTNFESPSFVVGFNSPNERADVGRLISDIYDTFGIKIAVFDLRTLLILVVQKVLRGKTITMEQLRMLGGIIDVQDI
Nature of the data set: cleavage_in_vitro. The conditions noted are these: NEB4 buffer, relative activity 1; FI>=120 in NEB1 (1/4), >=32 in NEB2 (1/16), >=2 in NEB3 (1/256); reduced star activity.

Data set [2] has as its system T2, BbsI wild type (subunits A and B) (Brevibacillus laterosporus).
T2 sequence 1: T1 sequence 1
T2 sequence 2: T1 sequence 2 with A442P
Nature of the data set: cleavage_in_vitro. The conditions noted are these: NEB4 buffer, relative activity 1; FI=32 in NEB1 (1/2), 120 in NEB2 (1), 64 in NEB3 (1/4); substrate sequence not stated.

Turning to “DNA substrate containing BbsI recognition site”, the activity (fidelity index) in data set [1] is over 500; in data set [2] it was 64.
